The DeepSol protein solubility set

Test: soluble on expression in E. coli; label from the status in PepcDB or PDB records

Row | Sequence | soluble on expression in E. coli
1 | MVILLPMVTFTMAYLIVDVPKPGDIRTNQVSTILASDGSEIAKIVPPEGNRVDVNLSQVPMHVRQAVIAAEDRNFYSNPGFSFTGFARAVKNNLFGGDLQGGSTITQQYVKNALVGSAQHGWSGLMRKAKELVIATKMSGEWSKDDVLQAYLNIIYFGRGAYGISAASKAYFDKPVEQLTVAEGALLAALIRRPSTLDPAVDPEGAHARWNWVLDGMVETKALSPNDRAAQVFPETVPPDLARAENQTKGPNGLIERQVTRELLELFNIDEQTLNTQGLVVTTTIDPQAQRAAEKAVAKYLDGQDPDMRAAVVSIDPHNGAVRAYYGGDNANGFDFAQAGLQTGSSFKVFALVAALEQGIGLGYQVDSSPLTVDGIKITNVEGEGCGTCNIAEALKMSLNTSYYRLMLKLNGGPQAVADAAHQAGIASSFPGVAHTLSEDGKGGPPNNGIVLGQYQTRVIDMASAYATLAASGIYHPPHFVQKVVSANGQVLFDASTADNTGDQRIPKAVADNVTAAMEPIAGYSRGHNLAGGRDSAAKTGTTQFGDTTANKDAWMVGYTPSLSTAVWVGTVKGDEPLVTASGAAIYGSGLPSDIWKATMDGALKGTSNETFPKPTEVGGYAGVPPPPPPPEVPPSETVIQPTVEIAPGITIPIGPPTTITLAPPPPAPPAATPTPPP | soluble
2 | MVKCLSAHNKAPHVSVITPSYNSRRFIGETILSVQNQSYENWEMIIVDDCSTDQSAAKIKEIIEGDSRIRLLSLKENVGAAKARNLAIREARGRYIAFLDSDDIWLPHKLKTQLLFMEEMNIAFSYASYSLIDENGNELNREVSVPKSVDYHYLVGNTIIGCLTVMIDREKIPYVEMPSVQPEDTALWLNLLHEGHEAKGIQQVLAKYRIVANSVSSNKVRAAFRYWKLLRDQKSLNAVQSFYYFSKYAYHAYKKNKINVVGKTQLLEHHHHHH | not soluble
3 | MVKLILAEVFNSWQGEGGSVPGSAFGRRQIFVRFAGCDLRCIWCDSSQFIDASKVKKWRIEVEPFSGRFEYRENPASIDEVVDAILKLDTGDLHSISYTGGEPTLQIEGLYILMERMKGLGFDNFLETHGGHPELIKRVSYLTDYASVDIKDESARASRDWRGLVLKEVESIKILKEAGAKVYAKLVVTRETKLENVKWYANLLKGVAPLAIQPKEPMDISMEYLMKLYREAARIMGKKNVGLSFQVHKYLKVL | soluble
4 | MVKNVAVIVDSSFYIPKEEQQKYNIYVIPTPIIFNGRIKYDSDWSSAAKFFKDMNSAKKMPSTSMASPADVLKAFEQVRADGYRQAILMTMASGISGFYNMAVNLANDYQELDVQVWDSKFTLMISGVQALLAAELSAQGITREEIMKKVALLRDSTRVFIVVDDISHLKRTGRLAGGAALVAGLLNIKPILVFNKASKIVAIGKERQMKRAWNWLLKQYAIDAPDFDRPIRVLFADANNRALTENWQADFHEKYPDVITDFIPIGPLIGVHTGEKAVGFVYMDDWKDIARHH | not soluble
5 | MVKRREAFEIEGKRVIAGSQMGIKLPAAKLYTDTQLDIHVEVFHGVKPGPTLLVCAAIHGDELNGIEICRRLLGRVNPKNLAGTLIVVPIVNVFGFIQQSRYLPDRRDLNRCFPGSSKGALASRLANLFATQLLVHATHVIDLHTGAIHRDNLPQIRCDTNDETMLAMANAFGAPLIMHSKARSVSMRGYANQQGIPCILYEAGEALRFSELAIKSGLKGVLNVMRSLGMLKGRVSNKIASVSAIRSYWIRSESDGLVNMKLKLGQRVNKGYIIAHIVSPHGGDSVAIRAPTDGIIIGISNIPVTNEGEGMFHIAQFEGDEIEIANEQLDEFLMEYA | not soluble
6 | MVLDIDMFRTEKGGNPEIIRKSQQDRFKDPKLVDEVIELDEKWRKERFVADQLNRQKNAISKAIGEKMKKKEPQGTDDSVADDIVARLAELKIDELSQLTVVQLKKLRVLVDEKSVQTAAAVIANENARHEKLIQIGNLIHSSVVVSKDEANNKIERTFGDLSTKKKYSHVDLVVMVDGFDGERGTVVAGGRGYFLKGPLVFLEQAIIQLALQRLNVKGYVPLYTPFFMRKEVMQEVAQLSQFDDELYKVSSKGSEIAGDTSVDEKYLIATSEQPIAAYHRNEWIKETELPIKYAGVSTCFRQEVGSHGRDTRGIFRVHQFEKIEQFVLCSPNDNESWTLFDEMIGNAESYYQELQIPYQVVNIVSGELNNAAAKKFDLEAWFPGSGAYRELVSCSNCLDYQSRRLKVRYGQTKKLSGEVPFVHMLNATMCATTRVICAILENNQTEEGINVPTAIQQWMPENYRTFIPFVKPAPIDEDAKKATGKK | not soluble
7 | MVLEATVLVIDNSEYSRNGDFPRTRFEAQIDSVEFIFQAKRNSNPENTVGLISGAGANPRVLSTFTAEFGKILAGLHDTQIEGKLHMATALQIAQLTLKHRQNKVQHQRIVAFVCSPISDSRDELIRLAKTLKKNNVAVDIINFGEIEQNTELLDEFIAAVNNPQEETSHLLTVTPGPRLLYENIASSPIILEEGSSGMGAFGGSGGDSDANGTFMDFGVDPSMDPELAMALRLSMEEEQQRQERLRQQQQQQDQPEQSEQPEQHQDK | soluble
8 | MVLKGDAKRIVAMSSTHIAMLDAIGEVRCITGVSGIDYISNPDIQARRDSIGDVGYEGNINYELLLSLDPDLVLLYGVNGASAMESKLEELDIPFMYVGDYLEESPLGKAEWMVVLSEVTGKREKGEKAFAAIPVRYNALKKKVADSTLGLEHHHHHH | not soluble
9 | MVLLDNADRVVLLTEKERPRGRKIDISLTFLLPHDNWFSVEDGVSDHYFSRRGFLRASLLGVLCLRGIGSALATEFLEESYPVGRLSLRNIHTGEHLSVTYRTPDGEVDLDALNSINWLLRCHFTNQHTEMDLAVIEYLNMVDKVLGGGREFRIISGYRSPEYNRILSEHNGAVAKQSLHMEGKAIDIAVPGVSLAVLRDLAAGFRCGGVGYYPHSGFVHLDSGRFRTW | not soluble
10 | MVLLHHQPLGSHHATTSGGSLLERADLSHPIPENARKLAQLVEYDESRVELGTHSVFVREARPPGAHYSKATVIFLHGQSFSSSTWTENNLLRTFAALGYRAIAIDLPGSGQTRGAAIPQAEKPNFLMDFIETLGLKQVMIVCASMAAQYVLPLMTSTRHLSCVVLVAPSNTHEVVSPSSYTVPTLVVWGERDTSLGPTAAANLKNLPQVKLQKIPDAGHACYLHNPKCFENLCVNFFDLIRSYHH | not soluble
11 | MVLPKDVKWDLIRQFQRHEQDTGSPEVQIAILTERINRLTEHMKKHKKDIHSRRGLIAMVNKRRKLLEYLRETDYAKYLEVVQKLNLKVK | soluble
12 | MVLQHQFDGLLEVMPENPRKKLRFTSRHIAAVNRYLDDKYFDPKEEKWSNLHPKYRIVLENLIRQTGPRLSPQVTLFLPNTFNGAFAPRQPFGLPSYFYHTCKKAESITQATHAMNQEYTVKMKNLNDQIDAYIYDTHLDILKVTEKRGDYLKNIPHDFGEHPDNPRNGQDNPKIELEHREILWNGLKVVLENGRFYETSTTETNVVEIFLNDELLNDKLYILKAEFFAAFYASEEATQIEVMVLFDNYFMAGGTIQYGEKLVCHLQEIPGTYGTTSFSCSSDFKSMVRKCGLPPIPRIGSPWNSDLMESIAELQQAIIRLENRVYDKDYIGKYTHENGGFIEAYCASLKNLSNTLYLLEEGTIELPAHSKNWTPREKLAYLSNFAPEKEMTSCEIGKPCASFKMIIGLAKSLRKNPYNFSFSGELLAEFSFQIRMAMLSMYLVLERNLPDAPHDNSQFVMTTLSHFRRLYIDNVKKIYQIFPHFPVEMRPVVLDVMCQRATPANYQEILEIYSYEPDMVTKMVQKYPYILLFTPHVTRPPIKLIRDFSEYMEKEMMSSEQAQMSRVDVIVLEENEPDGQESGVDYILARSNKRARVDFEKLDLLLESIMPEEAPARDYRKNTSEGHLAEIFGPTNNEEAEEEPSLPSCSYSTPKRVNRAKPALDSPSGNLRTANKDQVDLLDNVMQRSEKRQWKM | not soluble
13 | MVMLTKCLSSKDNIMSLTCMPALFLGHGSPMNVLDDNDYTRAWRRLGEALPRPQAIVVVSAHWYTRGTGVTAMERPQTLHDFGGFPQALYDTHYPAPGSPALAQRLVELLAPVPVALDKEAWGFDHGSWGVLIKMYPNADIPMVQLSVDSTKPAAWHFEVGRKLATLRDEGVMLVASGNVVHNLRTVRWHGDNIPYPWAASFNDFVKANLTWQGPVEQHPLVNYLQHEGGALSNPTPEHFLPLLYVLGAWDGKEPITIPVDGIEMGSISMLSVQVGLEHHHHHH | not soluble
14 | MVMRGNKMRGDKKIFKKRVERFQELLKENNIDGAVIRTLSSFIYFTGTKWLRPSLLIPAEGEPRVLVVKGEAELFKERSWIEDVVEYQKAEELMLTVVKWIRENEMKRVGLEFGIERDAYLIFYKIFLRLNPTVEVVDILDLTMKLRMIKDEWELDNIRKAGKIALKGMRVAEEEIKPGRTELEIAAEVTRELMLNGSEDPKVYVSVTPRAHAEPFRDLKVPENGVVTVVIGTDWNHYYANMARTFIIGDPGERVKKAIEVKKEAIKLALEETKVGVPISTVEKKIEQFFKERGFGDYHLSGYTHGVGLLIEEPPIATIVVPQRAAKIQENMVLSIIHPPLMLPEGAIKYENTYIVKKDGLERVT | soluble
15 | MVPSRNGEGTELRGHMEIEKELALEKKTYGSHIKILILGGPLSGKSTIFKQMQIIHVDGFKTDQELIQYRGLIDNNIRDIYLQLIAGSRVVGIPLDPIEHITYEIDEIYAPMSDAFSVRTISELLEPLTEFWNSKQIQEIYKRRCEFELLDSTKYYLENLTRIADPTYLPNQEDIVHSRKATMSINSIVFEYTGVSLLMIDVGGQRSERKKWLHLFDDAKVVLFVIDLTGYAKRSEESRMELSRFPKFFRDVGSNAYDMKVALKIFNEVAAASALANAVFLLFFNKVDLFKEILSQVNLQPCFSKFDGENTYEETSKYICEKFIRAASSKKSVFPHFTTATNTENVKLVFRACMESVFKANAKATGLS | not soluble
16 | MVQLSLSQVHQDQIYRHGERCYPEECCGLLLGKILIGENGHRHWQVVEVQPTENCWGDVEEFQQNNHQGNKLHYFAIDPKVLLSAQKDCRQKGLSIIGIFHSHPHGQPIPSEFDRAIAWPEYIYLIASGLEHHHHHH | not soluble
17 | MVRDMKHTVEVMIPEAEIKARIAELGRQITERYKDSGSDMVLVGLLRGSFMFMADLCREVQVSHEVDFMTASSYGSGMSTTRDLKILKDLDEDIRGKDVLIVEDIIDSGNTLSKVREILSLREPKSLAICTLLDKPSRREVNVPVEFIGFSIPDEFVVGYGIDYAQRYRHLPYIGKVILLDE | soluble
18 | MVRMYEERTATFHSMNEGVIAIDNRLVITIFNEKAKQIFEVQGDLIGKVIWEVLKDSRLPEIVERNKAVYNEEIRVSGKVIMSSRIPIVMKKKVIGAVAIFQDRTEAAKMAEELTGVRNFVEALRVQNHEHMNKLHTIAGLIQLGKSEKALQLAFQASTEQENVTEFLHRSIQNDAAAGLLLSKIRRGRELGIAVHIDENSSLQQFPEHVDQHDIVVLLGNLIENAFGSFETVQSEDKRIDISIEQTDDILAILIEDNGCGIEPTHMPRLYDKGFTVNKTGGTGYGLYLVKQIIDKGSGTIEVDSHAGQGTSFSIVFPMKGE | not soluble
19 | MVRPYGIKVNKRKEREERYDKEEDEVEEQPKFEQKQKARESSKKAKKESTSRAEEDNDEEEVTVEATAAAEDIVGGIPIVLNAPNKEKSGIVFVLEKASLEVAKVGKTYQLLNSDDHANFLKKNNRNPADYRPDITHQALLMILDSPVNKAGRLKAVYVRTEKGVLFEVKPHVRIPRTFKRFAGIMLQLLQKLSITAVNSREKLLRCVKNPIEEHHLPVNSHRIGFSHSSEKLVNMQKHLATVCDDDRDTVFVVGAMAHGKIDCNYIDEFVSVSEYPLSAAYCISRICEALATNWNII | soluble
